Target: soybean trypsin inhibitor (soybean) (UniProt P01070)
Assay: SPR + ITC + AUC + fluorescence polarisation

- stoichiometry N: 2
Substance: α-chymotrypsin (enzyme)

— article PMC3491091
